Biological target: T1, recombinant gH/gL/UL128/UL130/UL131A pentamer (wild type) (human cytomegalovirus | human …)
T1 chain 1: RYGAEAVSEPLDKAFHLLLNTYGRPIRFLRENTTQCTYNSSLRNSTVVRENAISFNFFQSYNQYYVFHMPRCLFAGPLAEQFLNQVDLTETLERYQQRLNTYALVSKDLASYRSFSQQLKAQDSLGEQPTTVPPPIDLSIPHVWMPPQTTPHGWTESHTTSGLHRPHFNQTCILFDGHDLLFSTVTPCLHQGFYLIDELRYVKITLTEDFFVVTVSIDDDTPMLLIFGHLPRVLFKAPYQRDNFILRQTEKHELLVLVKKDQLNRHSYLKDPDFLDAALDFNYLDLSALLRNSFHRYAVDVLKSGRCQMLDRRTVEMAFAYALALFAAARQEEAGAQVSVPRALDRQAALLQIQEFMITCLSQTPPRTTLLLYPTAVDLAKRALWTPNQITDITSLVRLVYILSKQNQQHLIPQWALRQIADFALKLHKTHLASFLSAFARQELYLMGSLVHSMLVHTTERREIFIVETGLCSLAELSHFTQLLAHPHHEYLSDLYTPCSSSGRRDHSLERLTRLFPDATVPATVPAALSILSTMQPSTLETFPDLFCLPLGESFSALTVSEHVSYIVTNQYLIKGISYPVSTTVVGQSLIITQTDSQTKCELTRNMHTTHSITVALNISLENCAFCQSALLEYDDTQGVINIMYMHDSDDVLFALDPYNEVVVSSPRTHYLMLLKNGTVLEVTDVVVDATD
T1 chain 2: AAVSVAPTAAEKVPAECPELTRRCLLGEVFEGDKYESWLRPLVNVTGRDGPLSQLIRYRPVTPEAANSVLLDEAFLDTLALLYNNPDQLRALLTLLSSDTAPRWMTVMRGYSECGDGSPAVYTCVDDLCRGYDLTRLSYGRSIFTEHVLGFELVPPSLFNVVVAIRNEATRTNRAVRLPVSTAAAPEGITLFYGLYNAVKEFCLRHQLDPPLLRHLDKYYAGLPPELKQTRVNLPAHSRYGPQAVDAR
T1 chain 3: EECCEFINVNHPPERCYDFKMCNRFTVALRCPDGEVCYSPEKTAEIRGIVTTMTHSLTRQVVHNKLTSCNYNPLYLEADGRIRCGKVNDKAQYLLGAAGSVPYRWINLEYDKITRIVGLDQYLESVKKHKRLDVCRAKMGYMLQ
T1 chain 4: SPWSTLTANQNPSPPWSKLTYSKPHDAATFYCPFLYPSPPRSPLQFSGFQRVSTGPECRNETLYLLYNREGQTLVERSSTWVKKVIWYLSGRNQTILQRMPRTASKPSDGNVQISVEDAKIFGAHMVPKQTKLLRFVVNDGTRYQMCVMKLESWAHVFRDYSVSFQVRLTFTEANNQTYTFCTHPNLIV
T1 chain 5: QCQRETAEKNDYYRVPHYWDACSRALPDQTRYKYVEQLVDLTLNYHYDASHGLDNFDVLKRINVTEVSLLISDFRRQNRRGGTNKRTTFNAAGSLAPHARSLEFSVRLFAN
Test: SPR

B1: MAb 9I6 (antibody, V domains shown)
VH: EVQLVQSGAEVKKPGESLKISCRESGDTFPAYWIAWVRQMPGKGLEWMGIIYPIDSETTYSPSFQGQVTISADKSINTAYLQWSSLKASDSAIYYCARGTSTGLREAFHIWGQGTMVTVSS
VL: DVVMTQSPLSLAVTLGQPAYISCRSSQSLGYSDGNTYLNWFQQRPGQSPRRLIYEVSNRDSGVPDRFSGSGSGTDFTLKISRVEAEDVGTYYCMQGTHWPPMCSFGQGTKLEIK
B1 was tested, and the koff was 0.000151 s⁻¹.

— paper PMC9784774 (2022)
